Experimental data from US20250320252A1 (Scripps Research, published 2025).
Bridge positions count the residues as written; N and C are the ends. Square brackets hold non-standard residues; d marks the D form. Ends that are not written are not given here. C20L5A = not defined here; L5A(S) = not defined here; Aib = CC(C)(N)C(=O)O

What was measured:
Assay in all cases: cell-based or functional assay
mouse GLP1R = target: T1, mouse GLP1R (mouse, UniProt O35659 22-463)
T1 sequence (looked up): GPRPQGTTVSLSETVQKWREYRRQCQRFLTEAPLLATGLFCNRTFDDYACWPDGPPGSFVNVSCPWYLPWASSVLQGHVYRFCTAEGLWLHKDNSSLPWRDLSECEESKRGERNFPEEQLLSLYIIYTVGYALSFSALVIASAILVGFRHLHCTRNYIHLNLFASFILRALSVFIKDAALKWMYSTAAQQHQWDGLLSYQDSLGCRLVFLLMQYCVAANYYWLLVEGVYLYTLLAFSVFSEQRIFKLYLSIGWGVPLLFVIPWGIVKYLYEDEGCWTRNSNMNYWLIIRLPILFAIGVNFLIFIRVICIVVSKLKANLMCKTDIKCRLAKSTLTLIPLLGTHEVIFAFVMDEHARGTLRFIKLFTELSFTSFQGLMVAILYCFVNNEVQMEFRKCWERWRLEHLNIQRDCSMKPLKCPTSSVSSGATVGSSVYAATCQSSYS

dog GLP1R = target: T2, dog GLP1R (dog, UniProt A0A8I3NUR9 25-464)
T2 sequence: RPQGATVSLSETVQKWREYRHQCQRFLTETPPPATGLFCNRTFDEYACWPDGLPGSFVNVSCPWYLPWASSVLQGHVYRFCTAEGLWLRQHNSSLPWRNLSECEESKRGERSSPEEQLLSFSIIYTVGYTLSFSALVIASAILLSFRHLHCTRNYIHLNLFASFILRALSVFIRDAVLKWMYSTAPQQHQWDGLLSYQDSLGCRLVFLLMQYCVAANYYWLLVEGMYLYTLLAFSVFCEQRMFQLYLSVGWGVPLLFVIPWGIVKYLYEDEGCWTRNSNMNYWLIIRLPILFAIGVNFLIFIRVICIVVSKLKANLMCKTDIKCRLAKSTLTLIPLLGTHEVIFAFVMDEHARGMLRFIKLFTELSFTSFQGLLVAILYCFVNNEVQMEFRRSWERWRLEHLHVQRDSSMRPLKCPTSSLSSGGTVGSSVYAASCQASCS

cynomolgus monkey GLP1R = cynomolgus monkey GLP1R (cynomolgus monkey, UniProt F8V479 24-463)
mouse GIPR = target: T3, mouse GIPR (mouse, UniProt Q0P543 19-460)
T3 sequence (looked up): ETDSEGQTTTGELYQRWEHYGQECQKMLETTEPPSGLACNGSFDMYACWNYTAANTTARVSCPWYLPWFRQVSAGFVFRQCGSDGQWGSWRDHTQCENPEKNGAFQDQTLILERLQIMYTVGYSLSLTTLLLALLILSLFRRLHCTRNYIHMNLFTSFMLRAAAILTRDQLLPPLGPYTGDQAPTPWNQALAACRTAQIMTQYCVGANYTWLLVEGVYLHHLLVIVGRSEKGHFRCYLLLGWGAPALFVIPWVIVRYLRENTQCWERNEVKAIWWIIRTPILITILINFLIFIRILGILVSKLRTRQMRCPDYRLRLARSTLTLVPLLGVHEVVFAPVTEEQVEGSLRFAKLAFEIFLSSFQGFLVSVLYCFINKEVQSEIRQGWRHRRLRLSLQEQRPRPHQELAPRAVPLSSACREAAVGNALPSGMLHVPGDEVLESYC

cynomolgus monkey GIPR = target: T4, cynomolgus monkey GIPR (cynomolgus monkey, UniProt A0A2K5VD75 22-466)
T4 sequence: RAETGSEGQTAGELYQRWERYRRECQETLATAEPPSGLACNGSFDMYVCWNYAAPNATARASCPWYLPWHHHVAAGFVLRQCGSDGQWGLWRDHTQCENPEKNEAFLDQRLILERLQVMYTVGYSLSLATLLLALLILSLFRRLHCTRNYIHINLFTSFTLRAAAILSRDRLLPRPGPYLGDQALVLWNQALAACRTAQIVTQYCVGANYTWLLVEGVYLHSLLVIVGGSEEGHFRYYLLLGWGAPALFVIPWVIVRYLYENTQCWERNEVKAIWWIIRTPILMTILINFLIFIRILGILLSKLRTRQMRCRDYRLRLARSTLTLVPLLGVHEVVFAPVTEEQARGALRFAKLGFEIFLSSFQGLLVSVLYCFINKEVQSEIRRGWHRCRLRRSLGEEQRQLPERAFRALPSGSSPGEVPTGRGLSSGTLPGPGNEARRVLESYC

human GIP receptor [1] = target: T5, human GIP receptor (human, UniProt P48546 22-466)
T5 sequence (looked up): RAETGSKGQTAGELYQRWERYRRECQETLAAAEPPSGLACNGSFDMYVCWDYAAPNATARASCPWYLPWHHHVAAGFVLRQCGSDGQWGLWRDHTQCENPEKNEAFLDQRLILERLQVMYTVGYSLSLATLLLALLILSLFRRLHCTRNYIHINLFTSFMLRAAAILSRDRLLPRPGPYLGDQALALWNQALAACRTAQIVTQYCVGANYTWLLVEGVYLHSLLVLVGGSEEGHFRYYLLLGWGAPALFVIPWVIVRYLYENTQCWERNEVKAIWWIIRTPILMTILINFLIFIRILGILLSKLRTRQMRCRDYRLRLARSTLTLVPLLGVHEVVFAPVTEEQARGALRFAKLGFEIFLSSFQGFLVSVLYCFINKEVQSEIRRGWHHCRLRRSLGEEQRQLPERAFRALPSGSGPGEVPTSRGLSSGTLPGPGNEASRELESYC

dog GIPR = dog GIPR (dog)
human GIP receptor [2] = target: T5, human GIP receptor; remark: listed apart in the source

Y[Aib]EGTFTSDYSIYLDKCAA[Aib]EFVCWLIAGGPSSGAPPPS-NH2 (linker 17-24 via C20L5A; not fully specified; reading uncertain) [mCMV268 (27I, C(17-24)-C20L5A)]
In Vitro Potency GLP1R EC50 [nM], Mouse (mouse GLP1R): 0.26 nM | In Vitro Potency GLP1R EC50 [nM], Dog (dog GLP1R): 1.48 nM | In Vitro Potency GLP1R EC50 [nM], Cyno (cynomolgus monkey GLP1R): 0.22 nM | In Vitro Potency GIPR EC50 [nM], Mouse (mouse GIPR): 0.26 nM | In Vitro Potency GIPR EC50 [nM], Cyno (cynomolgus monkey GIPR): 0.16 nM | EC50 of receptor-mediated cAMP synthesis, GIPR (nM), 02/19 (human GIP receptor [1]): 0.05 nM | EC50 of receptor-mediated cAMP synthesis, GIPR (nM), 03/25 (human GIP receptor [1]): 0.04 nM | EC50 of receptor-mediated cAMP synthesis, GIPR (nM), 03/26 (human GIP receptor [1]): 0.03 nM | EC50 of receptor-mediated cAMP synthesis, GIPR (nM), average (human GIP receptor [1]): 0.04 nM

Y[Aib]EGTFTSDYSIYLDKCAA[Aib]EFVCWLIAGGPSSGAPPPS-NH2 (linker 17-24 via L5A(S); not fully specified; reading uncertain) [mCMZ371 (C(17-24)-L5A(S))]
In Vitro Potency GIPR EC50 [nM], Dog (dog GIPR): 0.47 nM | In Vitro Potency GLP1R EC50 [nM], Dog (dog GLP1R): 1.34 nM | In Vitro Potency GLP1R EC50 [nM], Cyno (cynomolgus monkey GLP1R): 0.11 nM | In Vitro Potency GIPR EC50 [nM], Mouse (mouse GIPR): 0.27 nM | In Vitro Potency GIPR EC50 [nM], 10% FBS (human GIP receptor [2]): 0.04 nM

YAEGTFISDYSIAMDKIHQQDFVNWLLAQKGKKNDWKHNITQ-NH2 (ligand) [wild-type human GIP]
In Vitro Potency GIPR EC50 [nM], Dog (dog GIPR): 0.7 nM | In Vitro Potency GIPR EC50 [nM], Cyno (cynomolgus monkey GIPR): 0.69 nM
